Positions count from the first letter of the chain named. Names may count otherwise.
T1: Boc-Glu(OBzl)-Ala-Arg-MCA
T1 chain: EAR

T2: Gly-Asp-Asp-Asp-Asp-Lys-β-naphthylamide
T2 chain: GDDDDK

T3: Z-Phe-Arg-MCA
T3 chain: FR

T4: recombinant fusion protein of human kallikrein 8 (hK8), O60259
T4 sequence (O60259 whole entry, looked up): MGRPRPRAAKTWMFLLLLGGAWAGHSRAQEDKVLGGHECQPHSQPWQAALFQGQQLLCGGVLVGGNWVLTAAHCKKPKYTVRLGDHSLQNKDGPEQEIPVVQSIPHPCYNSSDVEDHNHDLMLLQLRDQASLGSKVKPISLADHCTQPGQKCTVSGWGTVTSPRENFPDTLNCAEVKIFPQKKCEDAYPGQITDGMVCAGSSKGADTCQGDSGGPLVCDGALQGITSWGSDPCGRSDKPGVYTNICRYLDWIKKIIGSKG

T5: Pro-Phe-Arg-MCA
T5 chain: PFR

T6: human fibrinogen, P02671
T6 chain 1: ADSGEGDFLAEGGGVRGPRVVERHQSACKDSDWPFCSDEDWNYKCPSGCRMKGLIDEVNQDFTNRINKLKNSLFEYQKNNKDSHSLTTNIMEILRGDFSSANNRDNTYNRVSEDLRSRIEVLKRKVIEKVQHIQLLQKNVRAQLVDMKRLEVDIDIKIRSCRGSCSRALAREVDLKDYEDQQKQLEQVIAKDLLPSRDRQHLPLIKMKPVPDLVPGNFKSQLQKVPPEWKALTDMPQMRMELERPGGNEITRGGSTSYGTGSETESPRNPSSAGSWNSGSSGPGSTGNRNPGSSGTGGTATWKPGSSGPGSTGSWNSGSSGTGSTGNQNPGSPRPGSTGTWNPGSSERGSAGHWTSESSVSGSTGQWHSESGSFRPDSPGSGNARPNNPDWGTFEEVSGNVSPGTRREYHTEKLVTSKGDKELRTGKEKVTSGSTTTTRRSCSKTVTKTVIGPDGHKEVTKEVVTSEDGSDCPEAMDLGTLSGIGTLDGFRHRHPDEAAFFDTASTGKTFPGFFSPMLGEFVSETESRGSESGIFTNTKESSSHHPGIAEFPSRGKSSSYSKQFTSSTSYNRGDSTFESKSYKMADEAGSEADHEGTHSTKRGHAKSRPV
T6 chain 2: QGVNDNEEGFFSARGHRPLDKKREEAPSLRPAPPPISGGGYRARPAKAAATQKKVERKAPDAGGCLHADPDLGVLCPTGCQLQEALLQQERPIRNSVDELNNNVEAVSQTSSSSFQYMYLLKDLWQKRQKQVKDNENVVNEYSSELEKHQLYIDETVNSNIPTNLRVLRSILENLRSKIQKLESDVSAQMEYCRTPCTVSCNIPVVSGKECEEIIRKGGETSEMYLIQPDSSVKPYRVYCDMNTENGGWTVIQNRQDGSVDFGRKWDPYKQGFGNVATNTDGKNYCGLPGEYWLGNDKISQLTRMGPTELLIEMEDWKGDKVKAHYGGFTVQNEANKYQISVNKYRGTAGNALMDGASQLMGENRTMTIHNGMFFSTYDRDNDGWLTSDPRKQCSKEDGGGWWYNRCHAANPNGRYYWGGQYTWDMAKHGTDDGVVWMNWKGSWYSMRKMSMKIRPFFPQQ
T6 chain 3: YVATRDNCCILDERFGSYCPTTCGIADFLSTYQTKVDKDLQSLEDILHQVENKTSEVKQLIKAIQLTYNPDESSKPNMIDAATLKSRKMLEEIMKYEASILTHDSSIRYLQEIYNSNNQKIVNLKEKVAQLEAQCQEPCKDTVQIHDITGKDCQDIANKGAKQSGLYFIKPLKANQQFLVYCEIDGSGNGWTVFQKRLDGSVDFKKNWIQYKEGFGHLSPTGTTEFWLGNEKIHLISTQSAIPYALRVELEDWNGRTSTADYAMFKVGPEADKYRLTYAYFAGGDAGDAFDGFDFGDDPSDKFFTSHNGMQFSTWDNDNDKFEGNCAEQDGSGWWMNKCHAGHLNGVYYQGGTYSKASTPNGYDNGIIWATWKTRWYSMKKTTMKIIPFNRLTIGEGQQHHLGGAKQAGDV

T7: human high-molecular-weight (HMW) kininogen, P01042
T7 chain: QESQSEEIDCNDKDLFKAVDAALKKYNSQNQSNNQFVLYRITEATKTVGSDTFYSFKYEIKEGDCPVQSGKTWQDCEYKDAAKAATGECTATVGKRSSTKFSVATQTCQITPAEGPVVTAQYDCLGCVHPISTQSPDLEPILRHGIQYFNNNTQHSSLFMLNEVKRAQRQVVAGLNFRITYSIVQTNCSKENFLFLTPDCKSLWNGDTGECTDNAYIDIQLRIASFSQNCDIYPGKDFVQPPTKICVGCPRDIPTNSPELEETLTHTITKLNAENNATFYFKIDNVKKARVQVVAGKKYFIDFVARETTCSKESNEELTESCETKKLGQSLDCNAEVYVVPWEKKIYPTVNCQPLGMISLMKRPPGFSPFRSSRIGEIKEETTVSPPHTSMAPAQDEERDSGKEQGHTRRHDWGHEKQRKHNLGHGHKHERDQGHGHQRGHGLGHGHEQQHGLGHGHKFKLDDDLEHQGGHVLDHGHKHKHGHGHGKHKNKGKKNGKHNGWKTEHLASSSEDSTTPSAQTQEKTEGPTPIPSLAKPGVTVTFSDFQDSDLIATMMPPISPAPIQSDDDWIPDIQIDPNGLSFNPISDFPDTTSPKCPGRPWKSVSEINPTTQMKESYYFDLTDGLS

B1: Medaka EP-1 serine protease domain (wild-type) (protein)
chain: VVGGVNAEKGAWPWMVSLHWRGRHGCGASLIGRDWLLTAAHCVYGKNTHLQYWSAVLGLHAQSSMNSQEVQIRQVDRIIINKNYNRRTKEADIAMMHLQQPVNFTEWVLPVCLASEDQHFPAGRRCFIAGWGRDAEGGSLPDILQEAEVPLVDQDECQRLLPEYTFTSSMLCAGYPEGGVDSCQGDSGGPLMCLEDARWTLIGVTSFGVGCGRPERPGAYARVSAFTSWIAETRRSSFSDLD
B2: Bovine EP serine protease (Novagen) (protein)
chain: IVGGSDSREGAWPWVVALYFDDQQVCGASLVSRDWLVSAAHCVYGRNMEPSKWKAVLGLHMASNLTSPQIETRLIDQIVINPHYNKRRKNNDIAMMHLEMKVNYTDYIQPICLPEENQVFPPGRICSIAGWGALIYQGSTADVLQEADVPLLSNEKCQQQMPEYNITENMVCAGYEAGGVDSCQGDSGGPLMCQENNRWLLAGVTSFGYQCALPNRPGVYARVPRFTEWIQSFLH
B3: Medaka EP-1 serine protease domain mutant E173A (protein)
chain: B1 chain with E156A

Legend:
[1] = molecular target: human single-chain tPA fusion protein with N-terminal His-tag/EP-cleavage site, P00750
[2] = molecular target: T1, Boc-Glu(OBzl)-Ala-Arg-MCA
[3] = molecular target: Human plasma fibronectin, P02751
[4] = molecular target: T2, Gly-Asp-Asp-Asp-Asp-Lys-β-naphthylamide
Z-Phe-Arg-MCA = molecular target: T3, Z-Phe-Arg-MCA
[5] = molecular target: T4, recombinant fusion protein of human …
Pro-Phe-Arg-MCA = molecular target: T5, Pro-Phe-Arg-MCA
[6] = molecular target: recombinant fusion protein of Medaka gelatinase A
[7] = molecular target: recombinant fusion protein of Medaka trypsinogen
[8] = molecular target: D4K-cleavage site-containing control protein (Novagen)
human fibrinogen, P02671 = molecular target: T6, human fibrinogen, P02671
[9] = molecular target: T7, human high-molecular-weight (HMW) …

Sequence of Human plasma fibronectin, P02751 (P02751 other isoform, or with tags, fused parts or gaps): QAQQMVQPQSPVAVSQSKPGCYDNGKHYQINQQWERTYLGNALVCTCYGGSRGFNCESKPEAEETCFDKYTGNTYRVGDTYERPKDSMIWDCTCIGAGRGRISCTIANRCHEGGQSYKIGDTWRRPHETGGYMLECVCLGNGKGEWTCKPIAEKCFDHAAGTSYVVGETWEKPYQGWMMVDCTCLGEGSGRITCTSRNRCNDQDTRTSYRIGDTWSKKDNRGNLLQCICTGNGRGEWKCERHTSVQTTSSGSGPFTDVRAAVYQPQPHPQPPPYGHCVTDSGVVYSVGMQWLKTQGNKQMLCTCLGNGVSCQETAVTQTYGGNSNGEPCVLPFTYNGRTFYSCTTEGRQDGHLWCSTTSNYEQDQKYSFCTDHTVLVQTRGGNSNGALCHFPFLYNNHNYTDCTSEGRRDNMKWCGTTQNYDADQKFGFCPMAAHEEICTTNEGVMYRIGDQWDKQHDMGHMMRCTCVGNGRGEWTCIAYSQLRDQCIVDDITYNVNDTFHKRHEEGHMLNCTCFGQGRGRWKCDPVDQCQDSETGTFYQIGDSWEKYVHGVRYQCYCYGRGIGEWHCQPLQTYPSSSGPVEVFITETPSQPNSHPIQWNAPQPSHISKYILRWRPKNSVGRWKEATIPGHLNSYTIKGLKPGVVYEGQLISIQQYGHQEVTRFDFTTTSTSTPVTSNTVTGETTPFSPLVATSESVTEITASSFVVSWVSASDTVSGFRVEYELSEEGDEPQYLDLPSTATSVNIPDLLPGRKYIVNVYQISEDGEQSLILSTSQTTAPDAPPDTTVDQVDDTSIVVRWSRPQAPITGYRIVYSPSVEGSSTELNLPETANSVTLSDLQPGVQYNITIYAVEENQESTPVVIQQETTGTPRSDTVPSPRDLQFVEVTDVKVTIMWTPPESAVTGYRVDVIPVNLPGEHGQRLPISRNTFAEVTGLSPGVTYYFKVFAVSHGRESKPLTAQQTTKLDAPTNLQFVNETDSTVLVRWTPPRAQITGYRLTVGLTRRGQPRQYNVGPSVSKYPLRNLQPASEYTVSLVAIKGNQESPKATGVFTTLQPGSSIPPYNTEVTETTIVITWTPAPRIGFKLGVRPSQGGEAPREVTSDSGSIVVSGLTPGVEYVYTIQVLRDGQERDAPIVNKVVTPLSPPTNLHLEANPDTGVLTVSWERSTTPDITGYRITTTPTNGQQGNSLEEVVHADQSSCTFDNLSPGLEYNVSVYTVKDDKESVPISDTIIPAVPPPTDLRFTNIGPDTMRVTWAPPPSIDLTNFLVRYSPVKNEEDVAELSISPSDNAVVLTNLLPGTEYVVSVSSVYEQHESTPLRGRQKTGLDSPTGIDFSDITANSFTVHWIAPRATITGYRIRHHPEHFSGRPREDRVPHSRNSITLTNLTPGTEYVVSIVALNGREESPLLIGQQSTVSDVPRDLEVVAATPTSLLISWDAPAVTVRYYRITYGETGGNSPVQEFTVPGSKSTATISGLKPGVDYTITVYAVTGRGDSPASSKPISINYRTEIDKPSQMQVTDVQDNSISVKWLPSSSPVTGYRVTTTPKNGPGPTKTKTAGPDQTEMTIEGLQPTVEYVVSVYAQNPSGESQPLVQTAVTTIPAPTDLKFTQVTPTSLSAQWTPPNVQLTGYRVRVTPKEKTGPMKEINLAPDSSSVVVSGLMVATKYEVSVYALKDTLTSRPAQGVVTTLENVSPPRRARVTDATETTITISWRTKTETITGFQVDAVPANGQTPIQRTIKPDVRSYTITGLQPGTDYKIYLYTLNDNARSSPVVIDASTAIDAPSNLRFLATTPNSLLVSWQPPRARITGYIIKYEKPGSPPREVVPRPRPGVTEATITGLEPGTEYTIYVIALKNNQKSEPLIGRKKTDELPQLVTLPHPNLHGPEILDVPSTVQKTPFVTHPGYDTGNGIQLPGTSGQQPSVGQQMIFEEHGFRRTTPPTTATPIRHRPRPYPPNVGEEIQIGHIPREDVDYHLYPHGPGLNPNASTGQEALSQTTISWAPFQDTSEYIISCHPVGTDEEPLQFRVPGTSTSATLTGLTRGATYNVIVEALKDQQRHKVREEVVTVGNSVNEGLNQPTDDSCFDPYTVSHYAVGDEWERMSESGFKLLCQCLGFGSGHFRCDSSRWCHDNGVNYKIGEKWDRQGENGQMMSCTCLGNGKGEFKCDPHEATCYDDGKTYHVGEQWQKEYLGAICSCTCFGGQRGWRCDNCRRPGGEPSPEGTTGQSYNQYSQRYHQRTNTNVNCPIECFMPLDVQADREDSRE
Sequence of human single-chain tPA fusion protein with N-terminal His-tag/EP-cleavage site, P00750 (P00750 whole entry, looked up, the tested form may be a part): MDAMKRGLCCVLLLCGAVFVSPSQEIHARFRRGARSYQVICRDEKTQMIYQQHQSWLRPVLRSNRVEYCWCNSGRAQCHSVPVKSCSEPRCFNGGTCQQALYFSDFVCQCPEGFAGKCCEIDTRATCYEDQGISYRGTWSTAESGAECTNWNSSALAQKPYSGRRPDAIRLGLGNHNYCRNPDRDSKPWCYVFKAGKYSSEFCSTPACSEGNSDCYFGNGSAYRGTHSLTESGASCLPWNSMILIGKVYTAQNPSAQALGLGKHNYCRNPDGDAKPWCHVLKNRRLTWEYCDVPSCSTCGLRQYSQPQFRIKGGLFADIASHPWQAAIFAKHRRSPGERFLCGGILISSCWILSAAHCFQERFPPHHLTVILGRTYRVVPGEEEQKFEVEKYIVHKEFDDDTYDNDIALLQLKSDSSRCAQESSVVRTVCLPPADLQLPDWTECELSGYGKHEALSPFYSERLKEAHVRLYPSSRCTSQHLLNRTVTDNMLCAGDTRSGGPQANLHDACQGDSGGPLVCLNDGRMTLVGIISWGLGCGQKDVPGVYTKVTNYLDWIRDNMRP

Protein | cleavage of the fusion protein (SDS-PAGE/Western blot) [1] | Km [2] | kcat [2] | kcat/Km (mM^-1 · min^-1) [2] | proteolytic activity (SDS-PAGE) [3] | Km [4] | kcat [4] | kcat/Km (mM^-1 · min^-1) [4] | Km (Z-Phe-Arg-MCA) | kcat (Z-Phe-Arg-MCA) | kcat/Km (mM^-1 · min^-1) (Z-Phe-Arg-MCA) | proteolytic activity (gelatin zymography) (gelatin) | Km (Pro-Phe-Arg-MCA) | kcat (Pro-Phe-Arg-MCA) | kcat/Km (mM^-1 · min^-1) (Pro-Phe-Arg-MCA) | cleavage of the fusion protein (SDS-PAGE) [6] | cleavage of the fusion protein (SDS-PAGE) [8] | proteolytic activity (SDS-PAGE) (mouse laminin) | nonspecific proteolytic activity (SDS-PAGE) (human fibrinogen, P02671) | nonspecific proteolytic activity (SDS-PAGE) [9] | further results
B1 | The protein samples treated with the Medaka wild-type or mutant EP proteases, but not with mammalian ones, showed two polypeptides (53- and 55-kDa) | 0.2 mM | 6.7 min⁻¹ | 34 | Little or no hydrolysis was observed with the fish enzyme for the proteins | 0.7 mM | 940 min⁻¹ | 1300 | 0.1 mM | 2.9 min⁻¹ | 29 | Little or no hydrolysis was observed with the fish enzyme for the proteins | 10 mM | 140 min⁻¹ | 14 | A 60-kDa fusion protein was converted by wild-type or mutant proteases to a 55-kDa protein | the Medaka protease specifically cleaved the fusion protein to generate two polypeptides having expected molecular masses of 16- and 32-kDa | Little or no hydrolysis was observed with the fish enzyme for the proteins | – | – | amidolytic activity [2]: much lower than those of the EP proteases of mammalian origin; cleavage rate [4]: cleaved GD4K-βNA at a rate comparable to those of the porcine and bovine enzymes; enzyme activity for GD4K-βNA [4]: EP-1 was approximately three times more active than EP-2; amidolytic activity (Z-Phe-Arg-MCA): much lower than those of the EP proteases of mammalian origin; cleavage of the fusion protein (SDS-PAGE) [5]: Digestion with Medaka wild-type and mutant EP proteases generated 31.5-kDa active hK8 by cleaving the D4K sequence; amidolytic activity (Pro-Phe-Arg-MCA): much lower than those of the EP proteases of mammalian origin; conversion of trypsinogen to active trypsin [7]: The trypsinogen was converted to active trypsin by EP-1 faster than by EP-2
B2 | but not with mammalian ones, showed two polypeptides (53- and 55-kDa) | 0.5 mM | 740 min⁻¹ | 1500 | these substrates were detectably hydrolyzed by the mammalian proteases | 0.8 mM | 770 min⁻¹ | 960 | 0.5 mM | 720 min⁻¹ | 1400 | these substrates were detectably hydrolyzed by the mammalian proteases | 4 mM | 790 min⁻¹ | 200 | the fusion protein was extensively digested by mammalian EP serine proteases | the mammalian enzymes not only produced the two expected polypeptides but also further degraded the products | these substrates were detectably hydrolyzed by the mammalian proteases | both of which were degraded noticeably by mammalian EP proteases | both of which were degraded noticeably by mammalian EP proteases | –
B3 | – | 1 mM | 10 min⁻¹ | 10 | – | 0.3 mM | 320 min⁻¹ | 1100 | 0.4 mM | 2.3 min⁻¹ | 6 | – | 1 mM | 9.2 min⁻¹ | 9 | – | – | – | The mutant proteases had lower nonspecific proteolytic activity for ... human fibrinogen | The mutant proteases had lower nonspecific proteolytic activity for human HMW kininogen | D4K cleaving activity [1]: no serious reduction of the D4K cleaving activity for fusion proteins (gelatinase A, hK8, and tPA); enzyme activity against wild-type [2]: The same held true for all the other mutants except for F144A; hydrolysis [3]: Neither human fibronectin nor laminin was hydrolyzed by the mutants (data not shown); enzyme activity against wild-type [4]: The same held true for all the other mutants except for F144A; enzyme activity against wild-type (Z-Phe-Arg-MCA): The same held true for all the other mutants except for F144A; D4K cleaving activity [5]: no serious reduction of the D4K cleaving activity for fusion proteins (gelatinase A, hK8, and tPA); enzyme activity against wild-type (Pro-Phe-Arg-MCA): The same held true for all the other mutants except for F144A; nonspecific proteolytic activity (human fibrinogen, P02671): this mutant enzyme still retained a low nonspecific proteolytic activity for protein substrates (HMW kininogen and fibrinogen); D4K cleaving activity [6]: no serious reduction of the D4K cleaving activity for fusion proteins (gelatinase A, hK8, and tPA); activation of trypsinogen [7]: the other mutants activated trypsinogen at a reduced rate; conversion of trypsinogen to active enzyme [7]: A total of 12 mutants could convert the recombinant Medaka trypsinogen to its active enzyme (data not shown); nonspecific proteolytic activity [9]: this mutant enzyme still retained a low nonspecific proteolytic activity for protein substrates (HMW kininogen and fibrinogen); hydrolysis (mouse laminin): Neither human fibronectin nor laminin was hydrolyzed by the mutants (data not shown)
